Assay: soluble on expression in E. coli; label from the status in PepcDB or PDB records

Sequence | soluble on expression in E. coli
MDPFDEIVIKNYLSFPLVLQKLLSIKKLRRIEFFSQNMATHIVFDELGMTTKGFRPDKEVEKLLLKLELIDKRIERTLFRQKHFERFWATLKPLEQQLLIRRFKYKEEVNCPHRLIESVLDEIEEIETAICLMENIELEENELSDDVEENLERMCDFFAL | not soluble
MGSDKIHHHHHHLNNCGMVAWIMTLYTPEKPRGFDLIVIGNDVTFQSGSFGTAEDDLFAAASTYSREHKLPRVNVSVNSGARIGLSTKISKLVKLQLENEDKPEQGFEYIYIDGEHKAQIEGEVVYEELGNGRLKILAVIGAKNEKIGVENLQGSGLIAGETARAYAEVPTYCYVTGRSVGIGAYTARLAHRIVQHKQSHLILTGYEALNTLLGKKVYTSNNQLGGPEVMFRNGVTHAVVDNDLEGIAKVIRWMSFLPTPTEEFPFFSKHGDDCSARDVVIPSDSEQNTYDVRDLIDSKNLSNQTGICDTMSFDEICGDWAKSIVAGRARLCGIPIGVVSSEFRNFSTIVPADPAIDGSQVQNTQRAGQVWYPDSAFKTAEAINDLNKENLPLMIIASLRGFSGGQKDMYDMVLKFGAQIVDALAVYNRPVIVYIPEAGELRGGAWAVLDSKIRPEFIHLVADEKSRGGILEPNAVVGIKFRKPMMMEMMKRSDPTYSKLSSSTEPEAREQLEERYEELSKTYRNASVEFADAHDRWQRMKSVGVVEHVTSLTNSRRLFSELLRNEL | not soluble
MSLTRRNDAIAVVVTEPQNRLFVDPFFDRHLRGIRQELVRQGAQLVLLLIEEPDDYPRVGNFLGGGHVDGALLFSLRGDDPLPEMVDRMGLPAVFGGRPVLSPEDRGHRYTYVDADNRGGAREAVRHLVAQGRERIATITGPLNQAAAVDRLDGYRDVLPDSAPDLIVEGDFTLRGGVDAMAELLARCPDLDAVFAASDLMACGALRVLKEHGRRVPEDVAVIGFDDLPPLVETTEPSLTTVHQDIEGMGRLMARLLFERIPATPLDDGDHSLHRVITPTRLILRKTAEGHHHHHH | not soluble
MGSDKIHHHHHHMAKEEALAEAQLDSNRKKIQYRNNNISTQFVTPKYISLLIEKYWHEKNKFRRLLIVIECSKYKNESTIFFFRQVMSGEKDWFIRNYCLRILQRFDEVVYLPPKGKGAQEKYNTLVKHFGCDYKEDIGRTPEDIVKELYENDYIEHAKYFDAFISHAVSNADMVDEFVFKLNSLGLVAFVDWKSDRQDLNRSKLSHYTPTILELRMRQSKNLILIRTKESDLSSWVTWEINYFSKLGKKIAVLNLDNEHGKPHELIDTYPTVRIIDGNILVFNKSKQHKLVDWINES | not soluble
MSIYEFDSEEEYATFVNWIEAKKPSITDCSIETFNDDLEDFDRLDEDGLYIEYTRVLLDNLNVTKSMDLMIPTHSSFEFSQDFHLDAVRLRSCFGRNNLFNFHCKEIEVSDSEISSENVNQYLRAWAAGCYNELEKLEVLFYGNENKFDWKPLLQGLNRKRTIYEHNIIDPEVTDETTEVKIETEHPGEFDYYYYKWAKIHRKVDSEGNFYMGMIVN | not soluble
MEAYDICKFWKLDMLEEFSQIVLKGKKKIILDIPSPSQQNKSDIVSLCPADSPETCNSSIPDWLVKVMRKENGYDPKLIIKRRVLCTTDLRKNQGCLSMHLSKLEKSDFLTEDETRFLDEDFLKAKRDGLKVFLVDPESDKHVVYLKKWNGNTVWKYVLSHGWNNVIDKKIFKVNDVIEIWSFRDGSGKLCFALSSPTRCGRSSSGHSS | soluble
MAFRSKFAVLDESWTYVRVRRGPRRQNLWIWNALIDGVPFFVTGDRDYNTFRLLWLSLPKCEVHYTDDYPIYQVLYHHVVGKKYTHTVESYNSFCRSHLVRLARDTKAVNRSRAMIDYSLDLLNVMYPQLEHHHHHH | not soluble
MPAENSVEVHRLRKSVGQGEHELSILTGVELVVKRGETIALIGESGSGKSTLLAILAGLDDGSSGEVSLVGKPLHQMDEEARAQLRAQHVGFVFQSFMLIPTLNALENVELPALLRGENSGQSKAGAKALLEQLGLGKRLDHLPAQLSGGEQQRVALARAFNGRPDVLFADEPTGNLDRQTGDKIADLLFSLNREHGTTLILVTHDPALAARCDRRLRLVNGQLQEEA | not soluble
MGKKPISILLMGTDTGALGRSYKGRTDSMMVVTINPKTKKTTITSIPRDLGVTIPGYESKSPSKINAAYAFGQAGTAIKTVQQVFNVPIDFYVLVNMGGMEKVVDEAGGVDITPTLSFTYDGYTFTKGVKTHMNGKKALAYSRMRYDDPQNDYGRQTRQRAVLTAIISKSSSVSSLLNKDFIDSISNETKTDFTFNDLVDLAKNYRSSTGSIEETHAQGDGQMVNGQSMEIVSNTELQRVTNFIRNGLSLEHEKTGTAALSASSANTSDSSVEAANINAGNLEHHHHHH | soluble
MNIRDYIRENEARFLEDLFALIRIPSVSAKSEHKPDMQRCAEHWRDHLLQVGAQKAEVFQTPGNPVVYAERIMDPKAKTILVYAHYDVMPPEPLELWKSEPFEPVIRDGHIWARGADDDKGQGMIQVKGFETALALGLVQCNVKFLFEGEEEIGSTNLEAFCRAHKEMLSADVIIVSDTSMVSAETPSLTTGLRGLAYWEMEVTGPNRDLHSGHFGGAVANPINELCKLIAGIVDENGRITIPHFYDDVVPLSDEERQMIAQVPFSEEKYCQALDIDTVFGEAGYSTLERNSCRPSFDVCGIWGGYTGEGAKTVLPSKAYAKVSSRLVANQDHEKISQMFIDYIRSVAPKHIKVKVTPLHGGEAYLCPIDLPAYKAAEEACTIAFGKRPLAVRRGGSIPIIATFEKVLGLKTVLMGFGLESNAIHSPNENMPLDIFRKGIESVAEFYRIYK | not soluble
MGSDKIHHHHHHMAGPGCMLMFNRAAKDDATPRMRAGVAVNTGHSLAYQHVIEPSAGYQAKLEAELNPENGRRLSASLIAQILNLGSTSDPDIPAASQLAMAILKTIEAFQISREREPGPEHAPLDVLPLALRSPDADERAHEVCQRIAEHARALWQRMINERSGIPITHDTYLKILQLREPYFSFDFWILDEYQDTTPVVDELVNQQEGQKLYIGDPYQAIYSWRGAINALAGPIDRGLPVHYLTDSFRYNHQIAGMATLILRALGEPVPVRGQPRNFIHRRADDNHTIICRTNLSILVRAGELIVRGSPVFVDGGIPKSTYQRIESALALFQGRPNDVRISTLRQMGSWTAFVDYARGLGERADDMMNLIALVEQYQSQLPVLIDTLKRRLPYRNPRKPGQTTLITAHRSKGRQFAHVELDPDIGLPGDLMIKIQNQAPLQPKERESLHLLYVALTRAELSLELPKRIKENLKLLHGWFNRGTDTAETFTAKTTIPLPKAHAQTAQRARTEAFIRAHRRTD | not soluble
MGSDKIHHHHHHMTPIQSGILLEHRRFAIFMEAMIQGEFDAIRQGCKKFCQTLQELQQQYPDAGLGAVLAFGNDVWRDLDCNHCAAELKPFTPLGKGLAPATQRDLLIHIQSLRHDVNFTLAQAALAAFGSAIRIEEETHGFRWVEDRDLSGFIDGTENPQGDARHAVAIIPEGQPDAGGSYVFTQRWEHNLKQLQRFSVEQQEQMIGRTKQDNEELSSDERPVTSHLSRVDLKEDGKGLKILRQSLPYGTASGKNGLYFVAYCARLHNIEQQLLSMFGGRDGKRDDMLRFTRAVSGSYFFAPSLDQLLSL | not soluble
GMYAVPILNVYDFEVKKDKETSYKSATEDYVNKTMGVEQGVLGLFAATDERDKTTSYIVEIYNDYLAFSNHTKNQASKDFKAVIPQIAEGNLNSAEIDVQIAKDKKIEQNDNTFAVYTVIDVKPENDKEFAEIIKNIVETTFNEEGTLLVYLGTDRRNFNKWCLFEVYKDIDSYLNHRSAKYFKDYITQTKDMIAGKKRAELQVLKIENKGGLDYKKLY | soluble
MAHVAFNLLHLPAKTLRNVFQLMSHSELFIFSFASICAKRLVKSMNFEMLELDLVYSRPCKLKISFGEHEEFIIEFDEFGTLSKQEPSDAFVFLIAYKLDIRDCINHVLEVYKISKLHTLKVIGAINNPQNLLKIIGKLDLKVLWIFFNFSENSTTISVYREILNHLGARCDVRSLRRGFYDKEPQKSFFLLRLSLSYALSQEPHSRPTATLAARRLKRRQDTQPLDATTSVLMLRSCRTVGRGTSLPTHPPFSFVIAPHYYSCTCSDIQGEPDKLQ | not soluble
MIKHLFIDLDDTLWDTYHNNKSSLEELYHTHAWDRYFDSFETFFSIYLPHNEALWSEYRYGQIDKPTLTLERFRRPFTGYLTLSDEQILAWNAEFLSITGRKTRLCPHALEVMEYLHRYYKVYILSNGFREIQHAKLTNSGLAPYIDRVILSEDAGINKPNKKIFDFALVKAKARKTESIMIGDSWEADIVGAANAGLASVWYNPNRHILPDDGVRAPMHIISSLSELMQIF | not soluble
MRFSIVSLLHRLFLAGALALAAGAQAAPDPMGPPDKFVLDAATQTIDILKSDQNVKAGNLAHINQVVDAHILPFVNFQKTTRLAAGRYWRQATDTQKAELAKAFRGTLVRTYSGALTKVDNGTTIKLLPFRGDPNADDVVVRSLISQSNSQPVQVDYRLEKTPQGWRIYDMNVEGIWLIENYRNQFAQQINQNGIDGLIQALNQRNQAAALEHHHHHH | soluble
RETFKVLLQGVPDGIDLEGLKTDILSLPHIRSVHDIHLWTLDGESHVMTIHVVYCPDDFSSPQAVFDMKESVREKCSAHGIRHATIELDPEGCSCGMESC | not soluble
MSLSNLINGKIPNQAIQTLKIVKDLFGSSIVGVYLFGSAVNGGLRINSDVDVLVVVNHSLPQLTRKKLTERLMTISGKIGNTDSVRPLEVTVINRSEVVPWQYPPKREFIYGEWLRGEFENGQIQEPSYDPDLAIVLAQARKNSISLFGPDSSSILVSVPLTDIRRAIKDSLPELIEGIKGDERNVILTLARMWQTVTTGEITSKDVAAEWAIPLLPKEHVTLLDIARKGYRGECDDKWEGLYSKVKALVKYMKNSIETSLNEGHHHHHH | soluble
MRFTKVVGFLSVLGLAAVFPLTAQAEKAGTAGAGEWDKLGTYTYTYSSPTVYSTGGDFRVCLSGSTPFSVSLHLYEDDPGDNPDDYVGANYFSPGECHTFGSIGKFVDGSNNKAEFFVTDYSGKSKTVTFYDLEHHHHHH | not soluble
MSDSSQLHKVAQRANRMLNVLTEQVQLQKDELHANEFYQVYAKAALAKLPLLTRANVDYAVSEMEEKGYVFDKRPAGSSMKYAMSIQNIIDIYEHRGVPKYRDRYSEAYVIFISNLKGGVSKTVSTVSLAHAMRAHPHLLMEDLRILVIDLDPQSSATMFLSHKHSIGIVNATSAQAMLQNVSREELLEEFIVPSVVPGVDVMPASIDDAFIASDWRELCNEHLPGQNIHAVLKENVIDKLKSDYDFILVDSGPHLDAFLKNALASANILFTPLPPATVDFHSSLKYVARLPELVKLISDEGCECQLATNIGFMSKLSNKADHKYCHSLAKEVFGGDMLDVFLPRLDGFERCGESFDTVISANPATYVGSADALKNARIAAEDFAKAVFDRIEFIRSN | soluble
GMGILSGNPQDEPLHYGEVFSTWTYLSTNNGLINGYRSFINHTGDEDLKNLIDEAIQAMQDENHQLEELLRSNGVGLPPAPPDRPAARLDDIPVGARFNDPEISATISMDVAKGLVTCSQIIGQSIREDVALMFSQFHMAKVQFGGKMLKLNKNKGWLIPPPLHSDRPIKE | soluble
MGSDKIHHHHHHMKLADIYAHFQEDIFTIERELEEAVQARHDILRKASVHLLKAGGKRIRPVFVLLAGKFGTYDVNVLKHIAVPLELIHMASLVHDDVIDDADLRRGKKTIKSQWDNRIAMYTGDYMFAKAVQTATYFDDPNIHQIISNAINEMCLGEVEQIRDQYNPNQHLRIYFRRIKRKTALLIAVSCQLGALAAKADPAIVQKLYYFGYYVGMSFQITDDVLDFVGTEEQLGKPAGSDLLQGNVTLPALYALHHDMHAKRLIEQVLADRGNNSVHMEEVIAAIVSSGGIDYALSISDLYLKKAMRMLDHLPDDEPKQFLQEIANYIGRRKF | not soluble
DGDYIKDAVKEINYFMRDWRVDQVKSMDLRTVDIMAAAHNLMDVNEPYMLLSGYRSPQTNAMLRSRSRGVARNSLHMQGQAADLRLASRSVSQMANAAIACRAGGVGKYYRSNFVHMDCGEVRSWGG | not soluble
